Changes are numbered by the printed parent chain.
T1: VEGFR-3-Fc (UniProt P35916 25-328)
T1 construct: domain: first three Ig domains; conditioned supernatant of 293T cells; also called VEGFR-3-Fc fusion protein; not shown: Fc fragment of the pIg vector
T1 sequence (looked up): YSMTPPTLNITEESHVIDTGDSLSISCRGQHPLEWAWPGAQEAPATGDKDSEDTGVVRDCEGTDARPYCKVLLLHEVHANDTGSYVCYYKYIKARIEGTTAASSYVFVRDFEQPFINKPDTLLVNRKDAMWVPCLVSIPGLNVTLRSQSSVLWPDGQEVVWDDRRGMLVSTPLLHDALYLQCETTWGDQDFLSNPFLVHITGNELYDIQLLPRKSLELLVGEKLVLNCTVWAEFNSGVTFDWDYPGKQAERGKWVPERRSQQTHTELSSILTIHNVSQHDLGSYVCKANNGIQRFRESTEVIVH

B1: 24-5 (ligand)
chain: AHYNTEILKSIDNEWRKTQCMPREVCIDVGKEFGVATNTFFKPSCVPLMRCGGCCNDEGLECVPTEESNITMQIMRIKPHQGQHIGEMSFANHTSCRCMSKLD
B2: 24-3 (ligand)
chain: B1 chain with D57S, E61Q, A91L, N92Q, T94N, S95K, R97E, M99R, S100P, L102K
B3: 23-5 (ligand)
chain: AHYNTEILKSIDNEWRKTQCMPREVCIDVGKEYPDEIEYIFKPPCVSVYRCGGCCNDEGLECVPTEESNITMQIMRIKPHQGQHIGEMSFANHTSCRCMSKLD
B4: 22-5 (ligand)
chain: B1 chain with S44P, P47S, L48V, M49Y
B5: 21-5 (ligand)
chain: B3 chain with P44S, S47P, V48L, Y49M
B6: 21-7 (ligand)
chain: B3 chain with P44S, S47P, V48L, Y49M, D57S, E61Q
B7: 24-1 (ligand)
chain: B1 chain with A91L, N92Q, T94N, S95K, R97E, M99R, S100P, L102K
B8: 22-7 (ligand)
chain: B1 chain with S44P, P47S, L48V, M49Y, D57S, E61Q
B9: 14-1 (ligand)
chain: GQNHHEVVKFMDVYQRSYCHPIETLVDIFQEFGVATNTFFKPSCVPLMRCGGCCNDEGLECVPTEESNITMQIMRIKPHQGQHIGEMSFLQHNKCECRPKKD
B10: 14-5 (ligand)
chain: B9 chain with L90A, Q91N, N93T, K94S, E96R, R98M, P99S, K101L
B11: 14-7 (ligand)
chain: B9 chain with D56S, E60Q, L90A, Q91N, N93T, K94S, E96R, R98M, P99S, K101L
B12: 14-3 (ligand)
chain: B9 chain with D56S, E60Q
B13: 13-1 (ligand)
chain: GQNHHEVVKFMDVYQRSYCHPIETLVDIFQEYPDEIEYIFKPPCVSVYRCGGCCNDEGLECVPTEESNITMQIMRIKPHQGQHIGEMSFLQHNKCECRPKKD
B14: 13-5 (ligand)
chain: B13 chain with L90A, Q91N, N93T, K94S, E96R, R98M, P99S, K101L
B15: 13-7 (ligand)
chain: B13 chain with D56S, E60Q, L90A, Q91N, N93T, K94S, E96R, R98M, P99S, K101L
B16: 84-7 (ligand)
chain: AHYNTEILKFMDVYQRSYCHPIETLVDIFQEFGVATNTFFKPSCVPLMRCGGCCNSEGLQCVPTEESNITMQIMRIKPHQGQHIGEMSFANHTSCRCMSKLD
B17: 71-6 (ligand)
chain: GQNHHEVVKSIDNEWRKTQCMPREVCIDVGKEYPDEIEYIFKPSCVPLMRCGGCCNDEGLECMNTSTSYLSKTLFEIKPHQGQHIGEMSFANHTSCRCMSKLD
B18: 73-6 (ligand)
chain: B17 chain with S44P, P47S, L48V, M49Y
B19: 73-8 (ligand)
chain: B17 chain with S44P, P47S, L48V, M49Y, D57S, E61Q
B20: 13-9 (ligand)
chain: GQNHHEVVKFMDVYQRSYCHPIETLVDIFQEYPDEIEYIFKPPCVSVYRCGGCCNDEGLECVPTEESNITMQIMRITVPLSQGPKPVTISFLQHNKCECRPKKD
B21: 13-11 (ligand)
chain: B20 chain with D56S, E60Q
B22: 12-14 (ligand)
chain: GQNHHEVVKFMDVYQRSYCHPIETLVDIFQEFGVATNTFFKPPCVSVYRCGGCCNDEGLECMNTSTSYLSKTLFEITVPLSQGPKPVTISFANHTSCRCMSKLDL
B23: 31-1 (ligand)
chain: GQNHHEVVKSIDNEWRKTQCMPIETLVDIFQEYPDEIEYIFKPSCVPLMRCGGCCNDEGLECVPTEESNITMQIMRIKPHQGQHIGEMSFLQHNKCECRPKKD
B24: 72-1 (ligand)
chain: GQNHHEVVKSIDNEWRKTQCMPREVCIDVGKEFGVATNTFFKPPCVSVYRCGGCCNDEGLECVPTEESNITMQIMRIKPHQGQHIGEMSFLQHNKCECRPKKD
B25: 72-3 (ligand)
chain: B24 chain with D57S, E61Q
B26: 22-13 (ligand)
chain: AHYNTEILKSIDNEWRKTQCMPREVCIDVGKEFGVATNTFFKPPCVSVYRCGGCCNDEGLECVPTEESNITMQIMRITVPLSQGPKPVTISFANHTSCRCMSKLD
B27: 22-15 (ligand)
chain: B26 chain with D57S, E61Q
B28: 81-9 (ligand)
chain: AHYNTEILKFMDVYQRSYCHPIETLVDIFQEYPDEIEYIFKPSCVPLMRCGGCCNDEGLECVPTEESNITMQIMRITVPLSQGPKPVTISFLQHNKCECRPKKD
B29: 81-11 (ligand)
chain: B28 chain with D56S, E60Q
B30: 81-13 (ligand)
chain: B28 chain with L92A, Q93N, N95T, K96S, E98R, R100M, P101S, K103L
B31: 81-15 (ligand)
chain: B28 chain with D56S, E60Q, L92A, Q93N, N95T, K96S, E98R, R100M, P101S, K103L

Target: T2, VEGFR-1-Fc (UniProt P17948 27-338)
T2 construct: domain: first three Ig domains; expressed in Drosophila S2 cells, purified on Protein A sepharose; also called VEGFR-1-Fc fusion protein; not shown: Fc fragment from the Signal-pIgPlus vector
T2 sequence (P17948 27-338): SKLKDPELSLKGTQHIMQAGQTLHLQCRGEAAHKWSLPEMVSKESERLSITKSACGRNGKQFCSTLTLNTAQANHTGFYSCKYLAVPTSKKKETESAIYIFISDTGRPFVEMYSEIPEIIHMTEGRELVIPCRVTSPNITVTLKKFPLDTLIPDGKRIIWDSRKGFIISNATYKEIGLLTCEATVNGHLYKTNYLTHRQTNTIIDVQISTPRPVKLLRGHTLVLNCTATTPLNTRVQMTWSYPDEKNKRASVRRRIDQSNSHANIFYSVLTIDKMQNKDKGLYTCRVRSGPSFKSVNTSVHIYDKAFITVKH
Assay: receptor-Fc IP
Summary of the method: (§1)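 fusion protein at 400 ng/ml in an IP mix (PBS, 1.5% BSA, 0.06% Tween 20, 3 μg/ml heparin) was combined with sample supernatant at a 1:2 ratio. Bound ligand captured by immunoprecipitation with pentahistidine antibody.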

binding result	Binder
no binding	B1
no binding	B2
no binding	B3
no binding	B4
no binding	B5
no binding	B6
no binding	B7
no binding	B8
binds	B9
binds	B10
no binding	B11
binds	B12
binds	B13
binds	B14
binds	B15
no binding	B16

binding result	Binder
no binding	B17
no binding	B18
no binding	B19
binds	B20
binds	B21
no binding	B22
no binding	B23
no binding	B24
no binding	B25
no binding	B26
no binding	B27
binds	B28
binds	B29
binds	B30
binds	B31

Target: T3, VEGFR-2-Fc (UniProt P35968 20-322)
T3 construct: domain: first 3 Ig domains; conditioned supernatant of 293T cells; also called VEGFR-2-Fc fusion protein; not shown: Fc fragment of the pIg vector
T3 sequence (P35968 20-322): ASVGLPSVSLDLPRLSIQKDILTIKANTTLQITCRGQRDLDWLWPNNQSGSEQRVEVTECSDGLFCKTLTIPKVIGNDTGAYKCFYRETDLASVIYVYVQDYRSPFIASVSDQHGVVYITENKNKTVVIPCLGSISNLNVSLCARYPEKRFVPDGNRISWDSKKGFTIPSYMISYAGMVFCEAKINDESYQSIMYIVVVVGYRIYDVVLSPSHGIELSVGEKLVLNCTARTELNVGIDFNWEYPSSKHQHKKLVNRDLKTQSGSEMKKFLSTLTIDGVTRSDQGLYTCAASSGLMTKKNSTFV
Assay: receptor-Fc IP
Summary of the method: as §1

binding result	Binder
no binding	B1
no binding	B2
no binding	B3
no binding	B4
no binding	B5
no binding	B6
no binding	B7
no binding	B8
no binding	B9
no binding	B10
binds	B11
binds	B12
binds	B13
binds	B14
binds	B15
no binding	B16

binding result	Binder
no binding	B17
no binding	B18
no binding	B19
no binding	B20
no binding	B21
no binding	B22
no binding	B23
no binding	B24
no binding	B25
no binding	B26
no binding	B27
no binding	B28
binds	B29
no binding	B30
binds	B31

Target: T1, VEGFR-3-Fc
Assay: receptor-Fc IP
Summary of the method: as §1

binding result	Binder
no binding	B1
no binding	B2
no binding	B3
no binding	B4
no binding	B5
no binding	B6
no binding	B7
no binding	B8
no binding	B9
no binding	B10
no binding	B11
no binding	B12
no binding	B13
no binding	B14
no binding	B15
no binding	B16

binding result	Binder
no binding	B17
no binding	B18
no binding	B19
no binding	B20
no binding	B21
binds	B22
no binding	B23
no binding	B24
no binding	B25
no binding	B26
no binding	B27
no binding	B28
no binding	B29
no binding	B30
no binding	B31
